In patent publication US20150104459A1 one finds FACS M2-HK MFI and Trimeric HA Binding RLU data, which are given here for 18 molecules.

The target of assay [1] is M2 protein of influenza A/Hong Kong/483/97 (H5N1) (influenza A virus A/Hong Kong/483/97 (H5N1)).
The target of assay [2] is recombinant soluble homotrimeric HA of A/California/4/09 (H1N1) (Influenza A virus A/California/04/2009 (H1N1)). In words: HA microarray, BCC supernatant. The note with it: remark: other sources report otherwise.
In assay [3] the target is recombinant soluble homotrimeric HA of A/Japan/305/57 (H2N2) (Influenza A virus A/Japan/305/1957 (H2N2)). In words: HA microarray, BCC supernatant. The following applies: remark: other sources report otherwise.
The target of assay [4] is recombinant soluble homotrimeric HA of A/Solomon Islands/3/06 (H1N1) (Influenza A virus A/Solomon Islands/3/2006 (H1N1)). In words: HA microarray, BCC supernatant. The note with it: remark: other sources report otherwise.
Assay [5] addresses recombinant soluble homotrimeric HA of A/chicken/Vietnam/NCVD-016/08 (H5N1) (Influenza A virus A/chicken/Vietnam/NCVD-016/2008 (H5N1)). In words: HA microarray, BCC supernatant. The following applies: remark: other sources report otherwise.
The target in assay [6] is recombinant soluble homotrimeric HA, A/chicken/Vietnam/NCVD-016/08 (H5N1) (influenza A virus A/chicken/Vietnam/NCVD-016/2008 (H5N1)). In words: microarray, trimeric HA, transfection supernatant. The note with it: remark: other sources report otherwise.
The target of assay [7] is recombinant soluble homotrimeric HA, A/duck/Yangzhou/02/2005 (H8N4) (influenza A virus A/duck/Yangzhou/02/2005 (H8N4)). As to the kind of experiment: microarray, trimeric HA, transfection supernatant. The note with it: remark: other sources report otherwise.
Assay [8] deals with recombinant soluble homotrimeric HA of A/Wisconsin/67/05 (H3N2) (Influenza A virus A/Wisconsin/67/2005 (H3N2)). In words: HA microarray, BCC supernatant. The note with it: remark: other sources report otherwise.
Assay [9] has as its target recombinant soluble homotrimeric HA, A/northern shoveler/California/HKWF115/2007 (H6N1) (influenza A virus A/northern shoveler/California/HKWF115/2007 (H6N1)). In words: microarray, trimeric HA, transfection supernatant. The note with it: remark: other sources report otherwise.
For FACS M2-HK MFI in this document: test concentration or dose not given here.

B1: 3259_J21 (antibody, V domains shown)
VH: QVQLQESGPRVVRPSETLSLTCTVSGGSISSYNWIWIRQPPGKGLEWIGHIYDYGRTFYNSSLQSRPTISVDASKNQLSLRLTSVTASDTAVYYCARPLGILHYYAMDLWGQGTTVTVSS
VL: DIQMTQSPLSVSVSVGDRVTIACRASQSIDKFLNWYQQKPGKAPKLLIYGASNLHSGAPSRFSASGSGTDFTLTITNIQTEDFATYLCQQSFSVPAFGGGTKVEIK
As to B1, the FACS M2-HK MFI in [1] was determined as 1670 MFI.

B2: TCN-544 (5082_A19) (antibody, V domains shown)
VH: QVQLQESGPGLVKPSETLSLTCTVSRGSIGHYFWSWIRQPPGKGLEWIGYISYSGSTKYNPSLRSRVTISVDTSKNQFSLNLNSVTATDTALYYCAREDYDILTGAGPGMEVWGQGTTVTVSS
VL: QSMLTQPPSASGTPGQRVTISCSGSSSNIGSNTVNWFKHLPGTAPKLLIYRNDLRPSGVPDRFSGSKSGTSASLAISGLQSEDEADYYCATWDDSLNGFYVFGTGTKVTVL
As to B2, the Trimeric HA Binding RLU turned out to be 281 RLU in assay [2]; 187 RLU in assay [3]; 179 RLU in assay [4]; 272 RLU in [5]; 3070 RLU in assay [6]; 9440 RLU in [7].

B3: 3244_I10 (antibody, V domains shown)
VH: QVQLQESGPGLLKPSDTLALTCTVSGGSITSDYWSWIRQPPGRGLDWIGFFYNGGSTKYNPSLKSRVTISADTSKNQLSLKLTSVTAADTGVYYCARHDAKFSGSYYVASWGQGTRVTVSS
VL: DIQMTQSPSSLSASVGDRVTISCRASQSISTYLNWYQQQPGKAPKVLIFGATNLQSGVPSRFSGSGSGTDFTLTISSLQPEDFATYYCQQSYNTPLIFGQGTKLEIK
For the molecule B3, the FACS M2-HK MFI in [1] stood at 434 MFI.

B4: 3253_P10 (antibody, V domains shown)
VH: QVQLQESGPGLLKPSDTLALTCTVSGGSITSDYWSWIRQPPGRGLDWIGFFYNGGSTKYNPSLKSRVTISADTSKNQLSLKLTSVTAADTGVYYCARHDAKFSGSYYVASWGQGTRVTVSS
VL: DIQMTQSPSSLSASVGDRVTISCRASQSISTYLNWYQQQPGKAPKVLISGATDLQSGVPSRFSGSGSGTDFTLTISSLQPEDFATYYCQQSYNTPLIFGQGTKLEIK
On to B4, for which, in [1], the FACS M2-HK MFI was 43 MFI.

B5: 3243_J07 (antibody, V domains shown)
VH: QVQLQESGPGLLKPSDTLALTCTVSGGSITSDYWSWIRQPPGRGLDWIGFFYNGGSTKYNPSLKSRVTISADTSKNQLSLKLTSVTAADTGVYYCARHDVKFSGSYYVASWGQGTRVTVSS
VL: DIQMTQSPSSLSASVGDRVTISCRASQSISTYLNWYQQQPGKAPKVLISGATNLQSGVPSRFSGSGSGTDFTLTISSLQPEDFATYYCQQSYNTPLIFGQGTKLEIK
B5 had an FACS M2-HK MFI in assay [1] of 131 MFI.

B6: 3136_G05 (antibody, V domains shown)
VH: QVQLQESGPGLVKPSETLSLTCSVSGGSISSDFWSWIRQPPGKGLEWIGYVYNRGSTKYSPSLKSRVTISADMSKNQFSLNMSSVTAADTAVYYCAKNGRSSTSWGIDVWGKGTTVTVSS
VL: DIQMTQSPSSLSASVGDRLTITCRASQSISTYLHWYQQKPGKAPKLLIYAASSLQSGVPSRFSGSRSGTDFTLTISSLQPDDFATYYCQQSYSPPLTFGPGTKVDMK
Turning to B6, the FACS M2-HK MFI in assay [1] came out at 109 MFI.

B7: 3241_G23 (antibody, V domains shown)
VH: QVQLQQSGPGLVKPSQTLSLTCTVSGGPVSGGGYSWNWIRQRPGQGLEWVGFMFHSGSPRYNPTLKSRITISVDTSKNLVSLKLSSVTAADTAVYFCARVGQMDKYYAMDVWGQGTTVTVSS
VL: DIQMTQSPSSLSSSVGDRVTITCRASQSIGAYVNWYQQKAGKAPQVLIFGASNLQSGVPSRFSGSGSGTDFTLTISSLQPEDFATYFCQQTYSTPITFGQGTRLEIK
For the molecule B7, the FACS M2-HK MFI in assay [1] amounted to 1700 MFI.

B8: 3245_O19 (antibody, V domains shown)
VH: EVQLVESGGGLVQPGGSLRLSCTASGLSVSSTYMNWVRQAPGKGLEWVSVFYSETRTYYADSVKGRFTVSRHNSNNTLYLQMNSLRVEDTAVYYCARVQRLSYGMDVWGQGTTVTVSS
VL: DIQMTQSPSSLSASVGDRVTITCRASQSISTYLNWYQKRPGKAPKLLVYGASTLQSGVPSRFSGSGSGTDFTLTIASLQPEDSATYYCQQTYSIPLFGQGTRLEIK
Consider B8, for which the FACS M2-HK MFI in assay [1] is 919 MFI.

B9: 3244_H04 (antibody, V domains shown)
VH: EVQLVESGGGLVQPGGSLRLSCTASGLSVSSTYMNWVRQAPGKGLEWVSVFYSETRTYYADSVKGRFTVSRHNSNNTLYLQMNSLRAEDTAVYYCARVQRLSYGMDVWGQGTTVTVSS
VL: DIQMTQSPSSLSASVGDRVTITCRASQSISTYLNWYQKRPGKAPKLLVYGASSLQSGVPSRFSGSGSGTDFTLTIASLQPEDSAVYYCQQTYSIPLFGQGTRLEIK
Molecule B9 registered an FACS M2-HK MFI in assay [1] of 963 MFI.

B10: 3139_P23 (antibody, V domains shown)
VH: QVQLQESGPRLVKPSESLSLTCTVSGGSISNSFWGWIRQPPGEGLEWIGYVYNSGNTKYNPSLKSRVTISRDTSKSQLYMKLRSVTAADTAVYYCARHDDASHGYSISWGHGTLVTVSS
VL: DIQMTQSPSSLSASVGDRVTITCRASQTISTYLNWYQQKSGKAPKLLIYAASGLQSGVPSRFSGSGSGTDFTLTISSLQPEDFATYFCQQSYNTPLTFGQGTKVEIK
In assay [1], B10 had an FACS M2-HK MFI of 110 MFI.

B11: 3252_C13 (antibody, V domains shown)
VH: QVQLQESGPGLVKPSETLSLTCTVSGASISSDYWSWIRLPPGKGLEWIGYIYNRGSTKYTPSLKSRVTISLDTAENQFSLRLRSVTAADTAIYYCARHVGGHTYGIDYWGQGTLVTVSS
VL: DIQMTQSPSSLSASVGDRVTITCRASQSISNYLNWYQHKPGEAPKLLNYAASSLQSGVPSRFSASGSGTDFTLTISSLQPEDFATYYCQQSYNTPITFGQGTRLEIK
For B11, the FACS M2-HK MFI in [1] was found to be 449 MFI.

B12: 3362_B11 (antibody, V domains shown)
VH: QVQLQASGPGLVKPSETLSLTCTVSGDSITSGAYYWTWIRQHPGKGLEWIGYIYYSGNTYYNPSLKSRVTISLDTSKNQFSLKVNSVTAADTAVYYCARAASTSVLGYGMDVWGQGTTVTVSS
VL: DIQMTQSPSSLSASVGDRVTITCRASQSISRYLNWYQQEPGKAPKLLVYAASSLQSGVPSRFSGSGSGTDFTLTISSLQPEDFATYYCQQSYSTPLTFGQGTRLEIK
Turning to B12, in assay [1], the FACS M2-HK MFI is 218 MFI.

B13: 3255_J06 (antibody, V domains shown)
VH: QVQLQESGPGLVKPSETLSLTCTVSGASISSDYWSWIRLPPGKGLEWIGYIYNRGSTKYTPSLKSRVTISLDTAENQFSLRLRSVTAADTAVYYCARHVGGHTYGIDYWGQGTLVTVSS
VL: DIQMTQSPSSLSASVGDRVTITCRASQSISNYLNWYQHKPGEAPKLLNYAASSLQSGVPSRFSASGSGTDFTLSISGLQPEDFATYYCQQSYNTPITFGPGTRLEIK
B13 displayed an FACS M2-HK MFI in assay [1] of 442 MFI.

B14: 3420_I23 (antibody, V domains shown)
VH: QVQLQESGPGLVKPSETLSVTCKVSGDSISSYSWSWIRQPPGKGLEWVGYLYYSGSTKYNPSLKSRTTISVDTSTNQLSLKLSFVTAADTAVYFCARTGSESTTGYGMDVWGQGTTVTVSS
VL: DIQMTQSPSSLSASVGDRVTITCRASQSISTYLNWYQQKPGKAPKLLIYAASSLHSGVPSRFSGSGSGTDFALTISSLQPEDFATYYCQQSYSPPITFGQGTRLEIK
The molecule B14 came in with an FACS M2-HK MFI in assay [1] of 112 MFI.

B15: 3260_D19 (antibody, V domains shown)
VH: DMQLVESGGGLVPPGGSLRLSCAASGFSVSDNYINWVRQAPGKGLDWVSVFYSADRTSYADSVKGRFTVSSHDSKNTVYLQMNSLRAEDTAVYYCARVQKSYYGMDVWGQGTTVTVSS
VL: GIQMTQSPSSLSASVGDRVTITCRASQSISRYLNWYLQKPGKAPKLLISGASSLQSGVPSRFSGTGSGTEFTLTISSLQPEDFATYYCQQTFSIPLFGQGTKVEIK
Consider B15, for which the FACS M2-HK MFI in assay [1] was determined as 846 MFI.

B16: 3242_P05 (antibody, V domains shown)
VH: DMQLVESGGGLVPPGGSLRLSCAASGFSVSDNYINWVRQAPGKGLDWVSVFYSADRTSYADSVKGRFTVSSHDSKNTVYLQMNSLRAEDTAVYYCARVQKSYYGMDVWGQGTTVTVSS
VL: GIQMTQSPSSLSASVGDRVTITCRASQSISRYLNWYLQKPGKAPKLLISGASSLQSGVPSRFSGTGSGTEFTLTISSLQPEDFATYYCQQTFSIPLFGQGTKVEIK
The molecule B16 displayed an FACS M2-HK MFI in assay [1] of 596 MFI.

B17: 3248_P18 (antibody, V domains shown)
VH: QVQLQESGPGLVKPSETLSLTCTVSGGSISAYHWSWIRQPPGKGLEWIGHIFDSGSTYYNPSLKSRVTISLDASKNQLSLRLTSVTASDTAIYYCARPLGSRYYYGMDVWGQGTTVTVSS
VL: DIQMTQSPSSLSASVGDRVTITCRASQSISRYLNWYQQKPGKAPKLLIYGASTLQNGAPSRFSGSGSGTDFTLTISSLQPEDSATYLCQQSYSVPAFGGGTKVEVK
Regarding B17, the FACS M2-HK MFI in assay [1] is 967 MFI.

B18: TCN-549 (5092_P04) (antibody, V domains shown)
VH: QVQLVQSGAEVKKPGASVKVSCKASGYTFTGYYMHWVRQAPGQGLEWMGWINPNSGDTNYAQKFQGRVTMTRDTSITTAYMELSSLRSDDTAVYYCARDSPYSSSWSFFDYWGQGPLVTVSS
VL: not shown
Take B18: the Trimeric HA Binding RLU in assay [2] turned out to be 338 RLU; in assay [3], 387 RLU; in assay [4], 284 RLU; in [8] it was 30900 RLU; in assay [5], 498 RLU; in assay [6], 1600 RLU. The Trimeric HA Binding RLU in assay [7] was found to be 9450 RLU; in [9], 996 RLU.
